Measured values published in patent publication US20250161481A1 (published 2025).

Columns and labels:
[1] = biological target: human Cluster of Differentiation 3 protein (CD3) (human, UniProt P07766 23-207; P09693 23-182; P04234 22-171; P20963 22-164)
[2] = biological target: human Cluster of Differentiation 28 protein (CD28) (human, UniProt P10747 19-220)

B1: MX1507 (antibody)
heavy 1: not shown
heavy 2: QVQLVQSGAEVAKPGASVKVSCKASGYTFTRYTMHWVKQAPGQGLEWIGYINPSRGYTNYAQKFQGKATLTTDKSTSTAYMELSSLRSEDTAVYYCARYYDDHYSLDYWGQGTTLTVSSASTKGPSVFPLAPSSKSTSGGTAALGCLVKDYFPEPVTVSWNSGALTSGVHTFPAVLQSSGLYSLSSVVTVPSSSLGTQTYICNVNHKPSNTKVDKKVEPKSCDKTHTCPPCPAPEAAGGPSVFLFPPKPKDTLMISRTPEVTCVVVDVSHEDPEVKFNWYVDGVEVHNAKTKPREEQYNSTYRVVSVLTVLHQDWLNGKEYKCKVSNKALAAPIEKTISKAKGQPREPQVCTLPPSRDELTKNQVSLSCAVKGFYPSDIAVEWESNGQPENNYKTTPPVLDSDGSFFLVSKLTVDKSRWQQGNVFSCSVMHEALHNHYTQKSLSLSPG
light: DIQLTQSPSSLSASVGDRVTITCRASQSISYLNWYQQKPGKSPKRWIYDTSKLASGVPSRFSGSGSGTDYTLTISSMQPEDAATYYCQQWSSNPLTFGGGTKVEIKRTVAAPSVFIFPPSDEQLKSGTASVVCLLNNFYPREAKVQWKVDNALQSGNSQESVTEQDSKDSTYSLSSTLTLSKADYEKHKVYACEVTHQGLSSPVTKSFNRGEC
modifications: engineered C-terminal cysteine of the knob chain, joined by maleimide-thiol reaction to DSPE-PEG2000-maleimide on the LNP surface
Work on B1 yielded a Kd [1] of 727 nM.

B2: MX1500 (antibody)
chain 1: not shown
chain 2: DIQLTQSPSSLSASVGDRVTITCRASQSISYLNWYQQKPGKSPKRWIYDTSKLASGVPSRFSGSGSGTDYTLTISSMQPEDAATYYCQQWSSNPLTFGGGTKVEIKRTVAAPSVFIFPPSDEQLKSGTASVVCLLNNFYPREAKVQWKVDNALQSGNSQESVTEQDSKDSTYSLSSTLTLSKADYEKHKVYACEVTHQGLSSPVTKSFNRGECGGGGSGGGGSGGGGSGGGGSGGGGSGGGGSGGGGSGGGGSQVQLVQSGAEVAKPGASVKVSCKASGYTFTRYTMHWVKQAPGQGLEWIGYINPSRGYTNYAQKFQGKATLTTDKSTSTAYMELSSLRSEDTAVYYCARYYDDHYSLDYWGQGTTLTVSSASTKGPSVFPLAPSSKSTSGGTAALGCLVKDYFPEPVTVSWNSGALTSGVHTFPAVLQSSGLYSLSSVVTVPSSSLGTQTYICNVNHKPSNTKVDKKVEPKSCDKTHTCPPCPAPEAAGGPSVFLFPPKPKDTLMISRTPEVTCVVVDVSHEDPEVKFNWYVDGVEVHNAKTKPREEQYNSTYRVVSVLTVLHQDWLNGKEYKCKVSNKALAAPIEKTISKAKGQPREPQVCTLPPSRDELTKNQVSLSCAVKGFYPSDIAVEWESNGQPENNYKTTPPVLDSDGSFFLVSKLTVDKSRWQQGNVFSCSVMHEALHNHYTQKSLSLSPG
With B2 the Kd [1] was 1050 nM.

B3: MX1243 (antibody)
chain 1: not shown
chain 2: DIQLTQSPSSLSASVGDRVTITCRASQSISYLNWYQQKPGKSPKRWIYDTSKLASGVPSRFSGSGSGTDYTLTISSMQPEDAATYYCQQWSSNPLTFGGGTKVEIKGGGGSGGSGSGGGGSASGSGQVQLVQSGAEVAKPGASVKVSCKASGYTFTRYTMHWVKQAPGQGLEWIGYINPSRGYTNYAQKFQGKATLTTDKSTSTAYMELSSLRSEDTAVYYCARYYDDHYSLDYWGQGTTLTVSSASGGSGDKTHTCPPCPAPEAAGGPSVFLFPPKPKDTLMISRTPEVTCVVVDVSHEDPEVKFNWYVDGVEVHNAKTKPREEQYNSTYRVVSVLTVLHQDWLNGKEYKCKVSNKALAAPIEKTISKAKGQPREPQVCTLPPSRDELTKNQVSLSCAVKGFYPSDIAVEWESNGQPENNYKTTPPVLDSDGSFFLVSKLTVDKSRWQQGNVFSCSVMHEALHNHYTQKSLSLSPG
B3 gave a Kd [1] of 6.92 nM and a Kd [2] of 2.55 nM.

B4: MX1506 (antibody)
heavy 1: not shown
heavy 2: QVQLVQSGAEVKKPGASVKVSCKASGYTFTSYYIHWVRQAPGQGLEWIGSIYPGNVNTNYNEKFKDRATLTVDTSISTAYMELSRLRSDDTAVYFCTRSHYGLDWNFDVWGQGTTVTVSSASTKGPSVFPLAPSSKSTSGGTAALGCLVKDYFPEPVTVSWNSGALTSGVHTFPAVLQSSGLYSLSSVVTVPSSSLGTQTYICNVNHKPSNTKVDKKVEPKSCDKTHTCPPCPAPEAAGGPSVFLFPPKPKDTLMISRTPEVTCVVVDVSHEDPEVKFNWYVDGVEVHNAKTKPREEQYNSTYRVVSVLTVLHQDWLNGKEYKCKVSNKALAAPIEKTISKAKGQPREPQVCTLPPSRDELTKNQVSLSCAVKGFYPSDIAVEWESNGQPENNYKTTPPVLDSDGSFFLVSKLTVDKSRWQQGNVFSCSVMHEALHNHYTQKSLSLSPG
light: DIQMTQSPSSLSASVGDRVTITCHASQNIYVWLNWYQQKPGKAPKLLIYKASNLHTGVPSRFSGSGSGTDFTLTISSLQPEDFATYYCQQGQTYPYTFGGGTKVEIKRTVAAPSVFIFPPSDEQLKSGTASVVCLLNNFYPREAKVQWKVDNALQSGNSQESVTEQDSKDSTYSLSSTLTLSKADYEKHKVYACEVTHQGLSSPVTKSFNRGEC
modifications: engineered C-terminal cysteine of the knob chain, joined by maleimide-thiol reaction to DSPE-PEG2000-maleimide on the LNP surface
Binder B4 has a Kd [2] of 1.34 nM.
